Measured values taken from patent US20230056445A1 (published 2023).
Read-outs that look alike come from different tables or passages of the source.

How the values were obtained:
[1] = biological target: T1, human IL-7Rα (IL-7R) on human PBMCs / monocytes (human, UniProt P16871 21-459); assay: cell-based or functional assay
T1 chain: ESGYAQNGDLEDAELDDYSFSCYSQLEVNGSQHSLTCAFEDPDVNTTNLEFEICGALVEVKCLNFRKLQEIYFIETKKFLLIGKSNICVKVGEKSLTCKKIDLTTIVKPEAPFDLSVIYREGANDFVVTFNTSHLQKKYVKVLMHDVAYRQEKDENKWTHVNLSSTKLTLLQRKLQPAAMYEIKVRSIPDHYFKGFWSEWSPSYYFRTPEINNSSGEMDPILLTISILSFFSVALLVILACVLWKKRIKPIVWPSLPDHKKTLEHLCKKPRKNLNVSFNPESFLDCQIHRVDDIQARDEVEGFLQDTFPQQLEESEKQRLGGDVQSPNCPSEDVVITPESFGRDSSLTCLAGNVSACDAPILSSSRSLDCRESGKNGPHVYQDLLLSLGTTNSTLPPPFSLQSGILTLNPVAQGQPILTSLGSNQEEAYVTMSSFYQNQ

[2] = biological target: T1, human IL-7Rα (IL-7R) on human PBMCs / …; assay: cell-based or functional assay

B1: V7R-2E9 (VHH, not shown: small tags and cut ends)
VHH: EVQLVESGGGLVQAGGSLRLSCESSISTFSSDAMGWFRQAPGKEREFLAAIGWSGAVTHYSDSVQGRFTISRDNAKNTVYLQMNSLKSEDTGRYYCAEDYDTDVWQYWGQGTQVTVSS
IL-7 induced pSTAT5 in hPBMCs EC50 [1]: 2.86 nM | IL-7 induced pSTAT5 in hPBMCs EC50 [2]: 2.86 nM
